The series is described as follows: soluble fraction after stress (log2 fold change); higher = more stays soluble; pooled small domains, quantitative proteomics. The conditions noted are these: stress: 75 degC.

Consider 69 sequences from the domain aggregation screens of Martell et al. (2025).
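Note: 20 min heating vs room temperature control held 20 min.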

Take “HMSFMFEISVIRSQYNMQDPESKTGFYNAIAKKLLEFPEKLERDNYTEAVAREYMIPETDLKNLVNSMGG”: the “soluble fraction (log2)” value is -3.12.

As to “HMSFNGTILSNYQKTYPNLAKFTYDQANDALVYEGNFIKLNGYGLSRIDPVFFNMNPDEIFIFIKNG”, the “soluble fraction (log2)” value was -3.85.

With “HMSFNTNENKNLLWELMNKHNLFKDIDNQHYQEVQKLFEEEIVFISNNNKSLDLVEQNKKFLSSIITKLNK”, the “soluble fraction (log2)” value is -1.84.

For “HMSFPQVELNTNKGRIVLELNSEKAPKTVANFLEYVRDGFYDGVIFHRVIDGFMIQGGGFDENFKEKA”, the “soluble fraction (log2)” value was -0.6.

“HMSFSPYLVRVSITDLNIRKGPGTNYAKTGKFTGKGVFTIVEMQTGKGSDTGWGRLKSGAGWISLDYTEKI”: the “soluble fraction (log2)” value is -3.47.

“HMSFSQNIGKRIREERLRLNLTQEKLAEDVNLSMAYIGQVERGDRSLTLDNLIIVAKRLGVTIDYLLS”: the “soluble fraction (log2)” value was -4.13.

For “HMSFTSQSVLIEIVRGTTQLTPLAAAVGANKREVVLAVHRLKQRGLVVSAGLGQYAATEAGRAFLTAGREV”, the “soluble fraction (log2)” value was -3.43.

With “HMSFYSVVISQDGSMLVAENRNEIYSNEELLELASEVNEKTGTIGTIGSLMYYKADKGGYTLITFLDNS”, the “soluble fraction (log2)” value was -4.18.

With “HMSGALDTVVGIRMLKLLSTPIEKSKAFQVGIINKDGKKLRDPTSGERQHYTFLNRFVFKVQYALMRS”, the “soluble fraction (log2)” value was -0.549.

Turning to “HMSGDYRPLYPNLPESEKSEAFNLLAGSALPARLDDRTGDIMVPADRYYEARMILANAGFAD”, the “soluble fraction (log2)” value is 0.17.

Consider “HMSGEMGIIVAKRLPIRSEPDELATRAFVLKAGTRVKIVKHLNGWLEIVHDGKAGYVQDLEVYVRVIG”, for which the “soluble fraction (log2)” value is -0.806.

With “HMSGEPVKSTLPGNVFKILVAVGDSVKKGQRMFVLEAMKMEIDVNAPKDGLVTSIEVQQGQTVANGQILAK”, the “soluble fraction (log2)” value was -0.0981.

“HMSGIESIVIPLKGLDFDMISSTLTPQLKQAIKYDKQSDSIILVGTNAKVNIIAKQVNAMVEVYKLKT”: the “soluble fraction (log2)” value was -1.81.

For the sequence “HMSGIGTTIKMLRENKNISQEELGNVLGVSDKTISSWEINRTEPKMGIVQLLADYFGVSTDYLIKG”, the “soluble fraction (log2)” value was -0.447.

“HMSGILINGELYKPGEQMSLKQRLSIQARIQMQGEDTVKPEMLKDFYNSGGPLSKEESSEYMKSQN”: the “soluble fraction (log2)” value was -0.515.

In the case of “HMSGIQNNFITRLKKVLAPTIGIAEEISDLLNISIDSAYRRIRGETDFTFEEIYIITRKHKISIDEIYG”, the “soluble fraction (log2)” value was -3.88.

Take “HMSGIVPAAPPLRPDLDIKWHTGDKVRHAKWGEGTIVSVKGEGEETELKIAFPGQGIRPFMQKYAPITR”: the “soluble fraction (log2)” value stood at 0.218.

Turning to “HMSGLEDIKKKILEDAGIKKGSVKFVKVDKDYDDGIWKYEIDFVYDGKEYEYEIEVETGKILSRKTEKSD”, the “soluble fraction (log2)” value came to 0.00588.

With “HMSGLVPAIGTKGEEGYIRESDIPGSNVKNPEEALAYMEWLKTQPSELLIPLYDEQGNVIGQFAVS”, the “soluble fraction (log2)” value is 0.461.

As to “HMSGMEKLAIQEIEKEIKSFVKGDILIELTGKNRATAYVSEKNVGALIGKKGERINSIEKRLGVGIDVRPY”, the “soluble fraction (log2)” value is -0.23.

In the case of “HMSGMNSDHRVNGNIHTFLIQHDLGTKWSVFTEQLLKQVFRSFLPDKELNFQTTDSTVILKVSLGSDFNEH”, the “soluble fraction (log2)” value is -0.0399.

On to “HMSGPAEDLLAIEGMDKELAYELAARGIRTRDELADQSLDELEAVPGLDPVRAGQLIMAARAHLFENAGQ”, for which the “soluble fraction (log2)” value worked out at 0.0744.

Consider “HMSGRSVSYSEFMSRVEAGQVSSVTLDGERVEVTGSDGSRYVTIAPSDATLTDKLVAKGVEVRADP”, for which the “soluble fraction (log2)” value is 0.462.

“HMSGSKEQQIVILNNILERQLQAFGLQGNREFPMVTLKNIYNSLSKIIENAGLKNVENYFVNPEQGKQM”: the “soluble fraction (log2)” value was -0.0735.

Regarding “HMSGTFIGGELVKPGEPLTPMQRAAITMGLQMGNTYSPEIMEKYNNAGGSPSKEEFENYQKNKS”, the “soluble fraction (log2)” value came to 0.216.

With “HMSHGFFELKTTQKEALIKLLDSHPNFTHTKTEADLTTAFLKLPMDAEQFNKLLFTNGIVLSHLVKRK”, the “soluble fraction (log2)” value was -0.581.

Take “HMSHGYVEMQAKDDQVLLAALKNHPWFEKVSIDEETGLTKAILTQPIEAEELNSMLFEKGIVLSHLVKRK”: the “soluble fraction (log2)” value came out at 0.288.

Regarding “HMSHISLGQRYKIEGYLQINLKRTQIAKEIGLPKKTVNQEIKRNSNPQTGIYKAEEAHQLYLDRMQKKRK”, the “soluble fraction (log2)” value was -0.335.

In the case of “HMSHKYKLTVPETGEGTRVDKFLSSALTELSRTRLKSLIEEGQVTLGGVKLTNPSHRVKSGDELNIEIPVP”, the “soluble fraction (log2)” value was 0.018.

Take “HMSHPNAPLTPEGRRRLAVLIVEDGWTIRRAAERFQVSPATASKWARRYRAGESLTDRSSRP”: the “soluble fraction (log2)” value was -1.85.

With “HMSHSDMEEWTDAVRSRRKKLGLTQVQIARRLGVTSHHFSQIESGRTIPSASLQIEIDRLLKNWND”, the “soluble fraction (log2)” value was -1.73.

On to “HMSHSVLIDISQLRIGMYIQLDVGWMHHPFPVSSFRVASLEQIEALRTLNLAQVRYFPAKSDPV”, for which the “soluble fraction (log2)” value was -3.51.

On to “HMSIAEMSGARKSAILLLALDEDSAAEIFKYLSAGEVQEISMEMAKLNQVSHDDMKAVLEAFHKETEEFV”, for which the “soluble fraction (log2)” value is -0.821.

For “HMSIAKIIGDRIRAYRNQKGWSQEYLAEKADVHHTYIGQLERGEKNATIESISKIAGALGVSLSRLFEN”, the “soluble fraction (log2)” value is -0.659.

For “HMSIEHVPGYTTLSKREQEIVHALLTRKTPEELADDLSISINTLNKHISHIYHKLGIRGRMQLFDYA”, the “soluble fraction (log2)” value was -1.1.

Turning to “HMSIEIKTIDVKHADLFQLQDILRNLYPELNIVPDQRNNKLILQGKRELLVEAERLTLQLDTE”, the “soluble fraction (log2)” value amounted to 0.248.

Turning to “HMSIESPEEFNAKFPPGSEIYATNIQKNAIVQSPANAKGDVEILANSMRLTINFRFISKRDT”, the “soluble fraction (log2)” value is -1.6.

In the case of “HMSIGPQMAGRRVLSGDLIARLEAFEGTVVLGRGVAREDALLIATQAGHVRWEPASRRLWVDSTA”, the “soluble fraction (log2)” value was -2.38.

In the case of “HMSIHPRDKADLGTALSKWKKGALDDKQLELEVARVFMRTYGKKLEGQALNKAVAAWVAALTQSKK”, the “soluble fraction (log2)” value is -0.171.

As to “HMSINIDEEKKILGPNADQIIKGITTWGQGLVSKGIWSDADFEEFKIFAATGNGINALNKVRKYY”, the “soluble fraction (log2)” value was -0.338.

As for “HMSIQMPDLSITPVTDAKKKIESLQLQYKEVGEYNDSVIAGYVIRTEPASGSYLNEDEEVIIYVSKG”, the “soluble fraction (log2)” value was -0.776.

For the sequence “HMSISEFNYTEFNGLVEKGQVSEVTISGREIEGRLTSGESFKTYSPETDNSALVGDLLKNNVKINGKP”, the “soluble fraction (log2)” value was found to be 0.0159.

For the sequence “HMSITKDNLSIGTNIRISGFSDIGRIISIPNKGNQVQVQIGSAKMNIKINSIVEIIKEEKDFNKNISN”, the “soluble fraction (log2)” value is -1.48.

Regarding “HMSIYMNIYNEFKKYIIANVYKYDDKLPSVRSIALEYGINPNTVQRAFQLLEDEGYIKTISKKGVYVNYR”, the “soluble fraction (log2)” value was -0.745.

Take “HMSKAYLSVESNISGARVFVDGQKEGTTPLSDVLLSAGEHLILVKKQGYETYQKRVRFQKGRSMSLYVDLS”: the “soluble fraction (log2)” value is -0.0864.

For the sequence “HMSKDQKKFFIEIVSIRGFGSQIGISILNKLSIPQIINAIKTQNKKEISSIPGIGQKMTERLILELNNKFK”, the “soluble fraction (log2)” value is -0.183.

For the sequence “HMSKININTITESELKELPISTVKQKAIQDYLIDRGFISNIYDLLDIKEITSDDVSLLKKVVNVKLPY”, the “soluble fraction (log2)” value was -0.489.

As to “HMSKIVPVAYSQFLKDVKNGNVSQVEIRGNNIKGINNNGSSFSTYAPNDLSLIDKLEKSNVEIIVMPLE”, the “soluble fraction (log2)” value is -0.368.

Regarding “HMSKKLLVLQTSDDAKAKDVLSQNGYQLDDGDKLSIIETEQTKMADVIKLLSDNAIDIEDVQHVH”, the “soluble fraction (log2)” value came to 0.14.

For the sequence “HMSKLQETEIPVALEVEKIPGLSNELKQKLLKIKPQTIGQASRISGITPAAISILMIYIKKNESISAVK”, the “soluble fraction (log2)” value is -1.9.

As to “HMSKLQKTKYAGVYFTEDTQTRVKTYVARIVLAGIIDTEVVVGHSNDQHRTNAAIAYQRRLELIQEAKN”, the “soluble fraction (log2)” value was -4.

Take “HMSKLSLREIVKKFEEQIIQLHKRGLNHSEISREIVTKNSIDLGDSHIDSLRRAISVHLQTP”: the “soluble fraction (log2)” value is -0.755.

Turning to “HMSKPIREVAYETLKNAIVTGEIPAGSRIVETEYAERMHISRTPLREALRKLERDGLVEYVVRRGVVVRAF”, the “soluble fraction (log2)” value is -1.63.

Consider “HMSKPTLTLKSNAYPYNLNGERINNYLGFTYIKKGATLNYQGSKRINGQNYYYIGDGAYIKNTTVGSTNN”, for which the “soluble fraction (log2)” value was -1.23.

For the sequence “HMSKQDRRIRRTRRLLKESLIQLMQEKEFMNISVREVTERADLNRGTFYLHYQDTRHLLQDIENETL”, the “soluble fraction (log2)” value was -3.3.

In the case of “HMSKQEFVDRLRVSLSGKISPASVEDNARYYEDYINTHIRLGEPEEDVLEGLGDPRLIARSIVAAESV”, the “soluble fraction (log2)” value is -0.0989.

As for “HMSKQLGFKIKTARRKLNISQGDLSKKLEISPSYLNLIESGKRKVSTDLLMKASEILNLDLKKL”, the “soluble fraction (log2)” value is -0.966.

With “HMSKQQFLDELAARLREEGAELLVAENLNFYRSYIEEEVAKGRSEEEVLAELGNPALIARSILDAAGF”, the “soluble fraction (log2)” value was -0.219.

For the sequence “HMSKSIELMNEIKKYIEEYYLQYRQSPSTTKIAEAVGIARGTAYKYLVEMSERNMIEYDGQEISTEVTRKY”, the “soluble fraction (log2)” value is -1.43.

As for “HMSKSKSEIDKDPHFWSSLFQRIGEGESLRKIAKDSKIPKSTLWAWIRNDPQLALRYSEAQQ”, the “soluble fraction (log2)” value was 0.0521.

As for “HMSLAATLSPREIDTVRLIAVGSSNKEIARQLGIAETTVKIHVQHILRKLNLTSRVQVAVFANAEGII”, the “soluble fraction (log2)” value is -0.931.

Take “HMSLAISGRNQLHGIIEEVRSDGLLSQIYLRVGDQVLTAVITRDAVAELKLKRGDTAVAIMKSTEVMIARE”: the “soluble fraction (log2)” value amounted to 0.38.

On to “HMSLDLERAVALLSLPRPVGNHPEDGELVEAGIGRYGPYVKHGSKYANLPDADEVFTIGMNRAVEVLAAK”, for which the “soluble fraction (log2)” value is -0.109.

For the sequence “HMSLDTASDKELLGLIVSEPIATRVLDAFRTLDATLFRTTPAELAAAAGVSSEHAQKIKAVAEIAARMLKP”, the “soluble fraction (log2)” value was -0.343.

Take “HMSLEDYVIIKNKTVKVYETEFDGAPVVTSSSVGQKLILVEYNDNFAKILYRAKDGLDYVGYIKRKDVYVR”: the “soluble fraction (log2)” value is -2.55.

In the case of “HMSLLLTPREASVWASEYLGKKVTSNNIIYLLNYGKIANHSTDLKENLIDKNELKIYYDSTIKSQKH”, the “soluble fraction (log2)” value is -0.755.

For “HMSLLQDRQRHEALAALGYYRGSVSAAWGAASVEALKAAQAALGVEVDGKWGPKTEDVIQAALGT”, the “soluble fraction (log2)” value was -0.272.

Consider “HMSLLQTRQRHEALAALGFFKGDVAAEWSAASTEALRAAQASLGIRVDGKWGPQTEDAIGKALAERQG”, for which the “soluble fraction (log2)” value came to 0.0108.

“HMSLLTIDELSQATGVSVRTLRYYVSSGVLDKPTGETRNARYGTHHLDQVRNIKKLQEEGLTLNRILEIKK”: the “soluble fraction (log2)” value was -2.14.
